According to patent US20250049972A1, “METHOD OF DETECTING PROSTATE CANCER IN A HUMAN SUBJECT USING A Cu 64 PSMA I&T INJECTION” (Curium US LLC, priority 2023, published 2025):

Test: clinical
Details: human, in vivo, total radioactivity
Procedure: Radiation dosimetry estimates for normal organs were determined for copper Cu-64 PSMA I&T based on biodistribution collected from the 12 patients enrolled in the trial. Whole-body PET/CT images acquired at 1 hour (±15 minutes), 4 hours (±30 minutes), and 24 hours (±2.0 hours) post injection were used together with blood samples collected prior to and 1, 2, 4, and 24 hours post injection and total voided urine samples collected for 0 to 1-hour and 1 to 4-hour intervals post injection.
Percent injected activity as a function of time was determined for the quantified organs listed below.
First, calculating Activity Quantification in PET Images utilizing the following Equation One: […]
Use of this equation can calculate organ/tissue and whole body activity concentration levels.
Second, Normalization of PET Quantification utilizing a normalization factor to decay values using urine activity utilizing the following Equation Two:
A normalization factor can be determined and applied to the decay corrected % IA values by assuming 100% quantification of the total body activity at the first time point and assuming accurate urine activity assay according to Equation Two.

[1] = Mean % Injected Dose, GI Total Contents
[2] = Mean % Injected Dose, Heart wall
[3] = Mean % Injected Dose, Lacrimal Glands
[4] = Mean % Injected Dose, Pituitary
[5] = Mean % Injected Dose, Red Marrow
[6] = Mean % Injected Dose, Salivary glands
[7] = Mean % Injected Dose, Stomach Wall
[8] = Mean % Injected Dose, Whole Body

For `O=C(O)CC[C@H](NC(=O)N[C@@H](CCCCNC(=O)CCCCCCC(=O)NCCCC[C@@H](NC(=O)[C@@H](Cc1ccccc1)NC(=O)[C@@H](Cc1ccc(O)c(I)c1)NC(=O)CC[C@H](C(=O)O)N1CCN(CC(=O)O)CCN(CC(=O)O)CCN(CC(=O)O)CC1)C(=O)O)C(=O)O)C(=O)O` [Cu-64 PSMA I&T, 64 Cu-(3S, 7S, 26R, 29R, 32R, 37R)-29-benzyl-32(4-hydroxy-3-iodobenzyl)-5, 13, 20, 28, 31, 34-hexaoxo-37-(4,7,10-tris(carboxymethyl)-1,4,7, 10-tetraazacyclododecan-1-yl)-4,6, 12, 21, 27, 30, 33-heptaazaheptatriacontane-1,3,7, 26, 37-pentacarboxylic acid, metal not drawn], the tissue uptake dose at 1 h (Mean % Injected Dose, Blood) was 5.8 %ID, the tissue uptake dose at 2 h (Mean % Injected Dose, Blood) was 4.2 %ID and the tissue uptake dose at 4 h (Mean % Injected Dose, Blood) was 3.2 %ID. For the same molecule, the tissue uptake dose at 24 h (Mean % Injected Dose, Blood) was 4.4 %ID, the tissue uptake dose at 1 h [1] was 10 %ID and the tissue uptake dose at 4 h [1] was 10 %ID. For the same molecule, the tissue uptake dose at 24 h [1] was 12 %ID, the tissue uptake dose at 1 h [2] was 1.2 %ID and the tissue uptake dose at 4 h [2] was 0.84 %ID. It also gave a tissue uptake dose at 24 h [2] of 0.96 %ID, a tissue uptake dose at 1 h (Mean % Injected Dose, Kidneys) of 8.6 %ID and a tissue uptake dose at 4 h (Mean % Injected Dose, Kidneys) of 5 %ID. For the same molecule, the tissue uptake dose at 24 h (Mean % Injected Dose, Kidneys) was 2.1 %ID, the tissue uptake dose at 1 h [3] was 0.023 %ID and the tissue uptake dose at 4 h [3] was 0.024 %ID. It also gave a tissue uptake dose at 24 h [3] of 0.015 %ID, a tissue uptake dose at 1 h (Mean % Injected Dose, Liver) of 19 %ID and a tissue uptake dose at 4 h (Mean % Injected Dose, Liver) of 25 %ID. For the same molecule, the tissue uptake dose at 24 h (Mean % Injected Dose, Liver) was 30 %ID, the tissue uptake dose at 1 h (Mean % Injected Dose, Pancreas) was 0.35 %ID and the tissue uptake dose at 4 h (Mean % Injected Dose, Pancreas) was 0.39 %ID. It also gave a tissue uptake dose at 24 h (Mean % Injected Dose, Pancreas) of 0.28 %ID, a tissue uptake dose at 1 h [4] of 0.0021 %ID and a tissue uptake dose at 4 h [4] of 0.0019 %ID. It also gave a tissue uptake dose at 24 h [4] of 0.0017 %ID, a tissue uptake dose at 1 h (Mean % Injected Dose, Prostate) of 0.036 %ID and a tissue uptake dose at 4 h (Mean % Injected Dose, Prostate) of 0.031 %ID. The tissue uptake dose at 24 h (Mean % Injected Dose, Prostate) was 0.021 %ID, the tissue uptake dose at 1 h [5] was 1.7 %ID and the tissue uptake dose at 4 h [5] was 1.4 %ID. The tissue uptake dose at 24 h [5] was 1.5 %ID, the tissue uptake dose at 24 h (Mean % Injected Dose, Remainder) was 52 %ID and the tissue uptake dose at 1 h [6] was 1.1 %ID. It also gave a tissue uptake dose at 4 h [6] of 0.95 %ID, a tissue uptake dose at 24 h [6] of 0.4 %ID and a tissue uptake dose at 1 h (Mean % Injected Dose, Spleen) of 1.5 %ID. The tissue uptake dose at 4 h (Mean % Injected Dose, Spleen) was 0.54 %ID, the tissue uptake dose at 24 h (Mean % Injected Dose, Spleen) was 0.29 %ID and the tissue uptake dose at 1 h [7] was 0.52 %ID. It also gave a tissue uptake dose at 4 h [7] of 0.51 %ID, a tissue uptake dose at 24 h [7] of 0.42 %ID and a tissue uptake dose at 1 h (Mean % Injected Dose, Testes) of 0.11 %ID. The tissue uptake dose at 4 h (Mean % Injected Dose, Testes) was 0.1 %ID, the tissue uptake dose at 24 h (Mean % Injected Dose, Testes) was 0.065 %ID and the tissue uptake dose at 1 h (Mean % Injected Dose, Thyroid) was 0.031 %ID. For the same molecule, the tissue uptake dose at 4 h (Mean % Injected Dose, Thyroid) was 0.019 %ID, the tissue uptake dose at 24 h (Mean % Injected Dose, Thyroid) was 0.016 %ID and the tissue uptake dose at 1 h [8] was 96 %ID. For the same molecule, the tissue uptake dose at 4 h [8] was 87 %ID, the tissue uptake dose at 24 h [8] was 81 %ID and the total activity recovery (whole-body PET plus urine), % of injected activity at 1 hour (sum of unnormalized activity recovery from whole body PET quantification and urinary excretion, % of the injected activity) was 101%.
